One experiment deals with T1, BPTI(K15L)-III MA phage (bovine; phage M13).
T1 construct: Whole M13 phage (ampicillin resistance) displaying the variant on gene III protein; also called BPTI(K15L)-III phage
As to the kind of experiment: pH elution from HNE beads. Here is the method: Samples were mixed on a Labquake shaker for 3 hours. The beads were washed with 0.5 ml of TBS/BSA for 5 minutes and recovered by centrifugation. The supernatant was removed and the beads were washed 5 times with 0.5 ml of TBS/0.1% Tween-20. Finally, the beads were resuspended in 0.5 ml of elution buffer (0.1 M HCl containing 1.0 mg/ml BSA adjusted to pH 2.2 with glycine), mixed for 5 minutes and recovered by centrifugation. The supernatant fraction was removed, neutralized with 130 µl of 1 M Tris, pH 8.0, diluted in LB broth, and titered for plaque-forming units on a lawn of cells.

Experiment [1] addresses T2, BPTI(K15L,MGNG)-III MA phage (bovine; phage M13).
T2 construct: also called BPTI3.CL; BPTI-IIIMK (K15L MGNG)
As to the kind of experiment: phage eluted from HNE beads.

T2 sequence (chain, as listed by the source): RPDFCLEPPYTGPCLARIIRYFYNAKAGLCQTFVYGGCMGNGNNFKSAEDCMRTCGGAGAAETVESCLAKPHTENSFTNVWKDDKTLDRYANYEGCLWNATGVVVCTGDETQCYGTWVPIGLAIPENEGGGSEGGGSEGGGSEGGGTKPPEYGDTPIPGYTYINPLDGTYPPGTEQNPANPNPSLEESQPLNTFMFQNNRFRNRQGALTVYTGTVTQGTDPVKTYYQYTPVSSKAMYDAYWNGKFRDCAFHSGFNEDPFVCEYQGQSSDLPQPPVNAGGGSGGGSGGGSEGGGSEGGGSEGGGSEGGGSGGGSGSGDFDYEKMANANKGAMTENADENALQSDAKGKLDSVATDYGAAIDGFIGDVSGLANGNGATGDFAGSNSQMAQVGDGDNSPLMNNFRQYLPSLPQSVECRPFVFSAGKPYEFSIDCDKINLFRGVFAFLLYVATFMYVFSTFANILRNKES

B1: human neutrophil elastase (enzyme, UniProt P08246 30-247, looked up)
chain: IVGGRRARPHAWPFMVSLQLRGGHFCGATLIAPNFVMSAAHCVANVNVRAVRVVLGAHNLSRREPTRQVFAVQRIFENGYDPVNLLNDIVILQLNGSATINANVQVAQLPAQGRRLGNGVQCLAMGWGLLGRNRGIASVLQELNVTVVTSLCRRSNVCTLVRGRQAGVCFGDSGSPLVCNGLIHGIASFVRGGCASGLYPDAFAPVAQFVNWIDSIIQ
notes: also called HNE; HNE beads
For the molecule B1, the binding result (in the experiment with BPTI(K15L)-III MA phage; in experiment [1]) was “binds” each time.

Values taken from patent US7208293.
